We go through one substance from US11931406.

Experiment [1] has as its target influenza HA protein (Flu A HA) (influenza A).
The target of experiment [2] is YFV X-SS-prME-XX (yellow fever virus 17D) (yellow fever virus strain 17D) (UniProt P03314).
UniProt P03314, sequence (P03314 92-788 limits assumed): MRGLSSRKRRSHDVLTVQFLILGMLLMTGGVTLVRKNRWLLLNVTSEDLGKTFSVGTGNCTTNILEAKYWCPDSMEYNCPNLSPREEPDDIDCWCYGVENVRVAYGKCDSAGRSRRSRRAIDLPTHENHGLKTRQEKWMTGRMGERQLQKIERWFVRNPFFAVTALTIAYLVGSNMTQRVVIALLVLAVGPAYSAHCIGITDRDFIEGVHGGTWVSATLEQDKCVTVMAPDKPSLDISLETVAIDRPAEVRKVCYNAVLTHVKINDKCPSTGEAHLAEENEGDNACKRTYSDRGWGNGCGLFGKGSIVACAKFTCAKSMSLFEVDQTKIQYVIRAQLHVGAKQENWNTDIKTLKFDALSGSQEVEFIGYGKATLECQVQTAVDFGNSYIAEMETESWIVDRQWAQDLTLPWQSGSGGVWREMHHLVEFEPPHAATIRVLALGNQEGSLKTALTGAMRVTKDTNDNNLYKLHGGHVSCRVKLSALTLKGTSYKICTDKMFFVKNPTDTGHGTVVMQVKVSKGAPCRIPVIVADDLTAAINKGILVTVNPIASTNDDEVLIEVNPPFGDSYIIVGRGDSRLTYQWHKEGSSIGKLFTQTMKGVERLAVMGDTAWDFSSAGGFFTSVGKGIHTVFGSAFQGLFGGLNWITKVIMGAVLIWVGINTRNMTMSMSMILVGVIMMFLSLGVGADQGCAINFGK

For “anti YF virus specific antibody (sc-58083 from Santa Cruz)”, the FITC positive cells in experiment [1] came out at 45.1%; in experiment [2] it was 82%.
